This assay deals with T1, TPP-2614, TweakR-ECD-34-68-hIgGFc-His-D47A (human).
T1 construct: alanine-scan mutein; used as HEK293 supernatant
As to the kind of experiment: ELISA, IgG coated at 1 µg/ml, 8-fold diluted HEK293 supernatant with the TWEAKR(34-68)-Fc mutein, anti-HIS-HRP, Amplex Red. (In general: An ELISA detects its analyte on a solid surface through an enzyme-linked reagent.)

Description: These TWEAKR(34-68) Fc muteins were expressed in HEK293 cells. To obtain dose-reaction data, IgGs were coated at a concentration of 1 μg/ml onto a 384-well Maxisorp ELISA plate, and a serial 2-fold dilution of the supernatant comprising the TWEAKR mutein was used as soluble binding partner. Detection was carried out using anti-HIS-HRP and Amplex Red.

B1: TPP-2090 (antibody, human IgG1, kappa, V domains shown)
VH: EVQLLESGGGLVQPGGSLRLSCAASGFTFSPYPMIWVRQAPGKGLEWVSYISPSGGSTHYADSVKGRFTISRDNSKNTLYLQMNSLRAEDTAVYYCARGGDTYFDYFDYWGQGTLVTVSS
VL: DIQMTQSPSSLSASVGDRVTITCRASQSISGYLNWYQQKPGKAPKLLIYQASSLQSGVPSRFSGSGSGTDFTLTISSLQPEDFATYYCQQSYTSPFITFGQGTKVEIKR
notes: human IgG1, anti-TWEAKR; biotinylated where used as soluble partner in the ELISAs
Regarding B1, the binding result is “no binding (tested: 8-fold diluted supernatant)”.

These data come from patent US20210252161A1 (Bayer, published 2021).
